# Measured values taken from patent US7052692.
# Legend:
# [1] = tested on: D-sequence-binding protein (D-BP), dephosphorylated form
# [2] = molecular target: D-sequence-binding protein (D-BP) (human); assay: cell-based or functional assay
"Ratio of dephosphorylated/phosphorylated ssD-BP, EGF-R-transfected 293 clone 293-4 [2]","Ratio of dephosphorylated/phosphorylated ssD-BP, EGF-R-transfected 293 clone 293-5 [2]","Ratio of dephosphorylated/phosphorylated ssD-BP, EGF-R-transfected 293 clone 293-6 [2]","Ratio of dephosphorylated/phosphorylated ssD-BP, EGF-R-transfected 293 clone 293-8 [2]","Ratio of dephosphorylated/phosphorylated ssD-BP, EGF-R-transfected 293 clone 293-12 [2]","Ratio of dephosphorylated/phosphorylated ssD-BP, control untransfected 293 cells [2]","Ratio of dephosphorylated/phosphorylated ssD-BPs, average of the EGF-R-transfected 293 cell clones [2]",Substance,in vitro phosphorylation assay followed by EMSA with the D(-) probe [1]
,,,,,,,purified EGF-R PTK (CalBiochem),incubation of the ssD-BP with the purified EGF-R PTK resulted in phosphorylation of this protein whereas incubation in the presence of ATP alone had no effect
0.31,0.45,0.36,0.51,0.64,3.5,0.45,human epidermal growth factor receptor (EGF-R) (from UniProt P00533 25-1210),
